# In patent publication US20220403048A1, “BINDING MOLECULES TO ARGINASE II [ARG2]” (Cancer Research Technology Limited, priority 2019, published 2022):
# Numbering of substitutions follows the chain as printed.
# T1: human ARG1 (Homo sapiens, UniProt P05089)
# T1 construct: Avi tag (N); His10 (after a GGG linker) (C); made in house; host or cells: E. coli BL21 (DE3)
# T1 sequence (P05089 with tags, fused parts or gaps): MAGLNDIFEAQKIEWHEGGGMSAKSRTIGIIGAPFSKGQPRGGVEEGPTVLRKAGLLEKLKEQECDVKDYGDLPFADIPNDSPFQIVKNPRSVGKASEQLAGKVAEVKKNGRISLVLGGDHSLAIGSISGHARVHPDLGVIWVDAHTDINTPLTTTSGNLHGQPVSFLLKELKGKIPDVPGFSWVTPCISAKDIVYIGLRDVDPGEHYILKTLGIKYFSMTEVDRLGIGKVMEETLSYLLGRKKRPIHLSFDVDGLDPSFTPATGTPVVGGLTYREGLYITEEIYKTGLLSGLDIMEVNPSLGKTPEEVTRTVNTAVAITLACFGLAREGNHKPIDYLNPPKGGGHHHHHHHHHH
# T2: ARG2 (Homo sapiens, UniProt P78540)
# T2 sequence (P78540 23-354): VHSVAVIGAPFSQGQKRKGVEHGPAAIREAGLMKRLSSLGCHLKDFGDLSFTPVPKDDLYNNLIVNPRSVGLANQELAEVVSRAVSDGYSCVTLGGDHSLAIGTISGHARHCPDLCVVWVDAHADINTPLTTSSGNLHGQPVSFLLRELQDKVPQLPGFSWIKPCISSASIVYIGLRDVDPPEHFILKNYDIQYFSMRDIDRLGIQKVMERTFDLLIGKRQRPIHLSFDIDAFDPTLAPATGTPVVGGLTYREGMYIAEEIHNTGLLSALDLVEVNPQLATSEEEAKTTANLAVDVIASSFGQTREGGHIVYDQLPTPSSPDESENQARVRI
# B1: C0021061: anti-ARG2 antibody, first generation lead, VH SEQ ID NO: 62, VL SEQ ID NO: 67 (antibody, listed as Homo sapiens, V domains shown)
# VH: EVQLLESGGGLVQPGGSLRLSCAASGFTFSSYAMSWVRQAPGKGLEWVSAKPTDAGSTYYADSVKGRFTISRDNSKNTLYLQMNSLRAEDTAVYYCARLRADLGLYMDLWGRGTLVTVSS
# VL: QSVLTQPPSVSAAPGQKVTISCSGSSSNIGNHYVSWYQQLPGTAPKLLIYNTVYPKSGIPDRFSGSKSGTSATLGITGLQTGDEADYYCGTWDSSLSALVFGGGTKLTVL
# modifications: C0021061
# B2: C0021065: anti-ARG2 antibody, VH SEQ ID NO: 72, VL SEQ ID NO: 77 (antibody, listed as Homo sapiens, V domains shown)
# VH: EVQLLESGGGLVQPGGSLRLSCAASGFTFSSYAMSWVRQAPGKGPEWVSAISGFSPYYADSVKGRFTISRDNSRNTLYLQMNSLRAEDTAVYYCARLRADLGLYMDLWGRGTLVTVSS
# VL: B1 VL with N51D, V53D, Y54H, P55M, K56A
# modifications: C0021065
# B3: C0021092: anti-ARG2 antibody, VH SEQ ID NO: 92, VL SEQ ID NO: 97 (antibody, listed as Homo sapiens, V domains shown)
# VH: B1 VH with S31R, K51H, P52T, T53H, D54S, A55P
# VL: B1 VL with T52S, Y54A, P55R, K56P
# modifications: C0021092
# B4: C0021158 IgG: anti-ARG2 antibody, VH SEQ ID NO: 282, VL SEQ ID NO: 287; IgG and Fab versions carry these sequences (antibody, listed as Homo sapiens, V domains shown)
# VH: EVQLLESGGGLVQPGGSLRLSCAASGFTFRYEVAAWVRQAPGKGLEWVSAISGPIPKGYYADSVKGRFTISRDNSKNTLYLQMNSLRAEDTAVYYCARLRADLGLYMDLWGRGTLVTVSS
# VL: QSVLTQPPSVSAAPGQKVTISCSGSSSNIGNHYVSWYQQLPGTAPKLLIYDNSERTAGVPDRFSGSKSGTSATLGITGLQTGDEADYYCGTWDELTSNLVFGGGTKLTVL
# modifications: C0021158 IgG
# B5: C0021133: anti-ARG2 antibody, VH SEQ ID NO: 192, VL SEQ ID NO: 197 (antibody, listed as Homo sapiens, V domains shown)
# VH: B4 VH with E32D, V33H, A34H, A35V, P54S, I55G, P56G, K57S, G58T
# VL: B4 VL with I20V, N52T, S53T, E54V, R55L, T56S, A57S, V59I
# modifications: C0021133
# B6: C0021177: anti-ARG2 antibody, VH SEQ ID NO: 322, VL SEQ ID NO: 327 (antibody, listed as Homo sapiens, V domains shown)
# VH: B4 VH with I55A
# VL: B4 VL with V3E, S9T, V10A, N52T, S53T, E54V, R55L, T56S, A57S, V59I
# modifications: C0021177
# B7: C0021181: anti-ARG2 antibody, VH SEQ ID NO: 342, VL SEQ ID NO: 347 (antibody, listed as Homo sapiens, V domains shown)
# VH: EVQLLESGGGLVRPGGSLRLSCAASEFTFRYDYHVWVRQAPGKGLEWVSAISGSGGSTYYADSVKSRFTISRDNSKNTLYLQMNSLRAEDTAVYYCARLRADLGLYMDLWGRGTLVTVSS
# VL: B4 VL with T19A, I20V, N31S, A57S, V59I, K106R
# modifications: C0021181
# B8: C0021022: anti-ARG2 antibody, VH SEQ ID NO: 42, VL SEQ ID NO: 47 (antibody, listed as Homo sapiens, V domains shown)
# VH: B2 VH with R74K
# VL: B1 VL with N51D, T52N, V53S, Y54E, P55R, K56P
# modifications: C0021022
# B9: C0021180: anti-ARG2 antibody, VH SEQ ID NO: 332, VL SEQ ID NO: 337 (antibody, listed as Homo sapiens, V domains shown)
# VH: B4 VH
# VL: QSVLTQPPTVSAAPGRKVTISCSGSSSNIGDHHVSWYQQLPGAAPKLLIYDTDHMASGIPDRFSGSRSGTSATLGITGLQTGDEADYYCGTWDSSLSALVFGGGTKLTVL
# modifications: C0021180
# B10: C0021139: anti-ARG2 antibody, VH SEQ ID NO: 212, VL SEQ ID NO: 217 (antibody, listed as Homo sapiens, V domains shown)
# VH: B7 VH with R13Q, E26G, R30Q, H34Q, S66G
# VL: B4 VL with A57S, V59I
# modifications: C0021139
# B11: C0021158: anti-ARG2 antibody, second generation lead, VH SEQ ID NO: 272, VL SEQ ID NO: 277 (antibody, listed as Homo sapiens, V domains shown)
# VH: B4 VH with S119P
# VL: B4 VL
# modifications: C0021158
# Biological target: T1, human ARG1
# Test: Bio-Layer Interferometry (OctetRED) binding, human ARG1
# Conditions: Fab analyte up to 120 nM, screening assay on anti-His surface
# Description: The affinity of binding between the Fab of C0020187 and human ARG2, cynomolgus ARG2 and human ARG1 was estimated using assays in which the biotinylated ARG antigen was captured on a streptavidin sensor tip. A fresh sensor tip was used for each measurement and no regeneration was used. A series of dilutions of the C0020187 Fab (3.25-240 nM) were individually placed in contact with the ligand surface for a sufficient amount of time to observe sensorgrams that could be fitted to an appropriate binding model with confidence (typically 5 minutes), followed by an appropriate length of dissociation time (typically 10 minutes). Blank reference (0 nM Fab) data were subtracted from each dataset to reduce the impact of any buffer artefacts or non-specific binding effects. An appropriate binding model was then fitted simultaneously to the data from each analyte titration using the Octet Evaluation software.
# (§1) The binding of affinity-matured antibodies to human ARG1 was also tested on the OctetRED system using a screening assay which stably captures […] as the ligand on an anti-His surface. The Fabs were typically tested in an analyte range of 1.8 to 120 nM, with an association time of 5 minutes and a dissociation time of 10 minutes. Sensors were regenerated using 10 mM glycine pH 1.5 after each cycle.
# as §1, with “Binding” for “The binding”, “the second-generation” for “affinity-matured”, “ARG” for “ARG1”, “were” for “were typically”, “as” for “in an”, “up” for “range of 1.8”
row,"Results, binding to human ARG1 (BLI)",Molecule
1,No binding observed,B1
2,No binding observed,B2
3,No binding observed,B3
4,No binding observed,B4
5,No binding observed,B5
6,No binding observed,B6
7,No binding observed,B7
8,No binding observed,B8
9,No binding observed,B9
10,No binding observed,B10

# Biological target: T2, ARG2
# Test: T cell proliferation assay (BrdU, 96 hours) with exogenous ARG2, improved variant IgGs
# Type: cell-based
# Conditions: In Absence of rhARG2; 96 hours; hIgG1
# Description: This assay served to provide evidence of improved functional efficacy for each affinity-matured antibody in comparison to the parent IgG, C0020187 (FIG. 12).
# Lead optimisation clones were tested to an endpoint treatment time of 96 hours and the BrdU Cell Proliferation Kit (Roche, France; Cat: 11647229001) was used according to the manufacturer's instructions. R347 was used as the irrelevant control. All clones tested n=2.
# Leukocyte cones underwent Ficoll Plaque (GE, Sweden; Cat: 17-1440-02) gradient separation, PBMC's were extracted and pan T cell population isolated by negative selection using the Human T Cell Enrichment Kit (Stemcell Technologies, France; Cat: 19051) according to the manufacturer's instructions.
# 40000 cells/well were seeded in complete growth media (RMPI 1640, 5% Human Serum Albumin) into a 96 well clear TC treated microplate (Greiner-Bio One, Germany; Cat: 655180). T cells were activated by the addition of ImmunoCult CD3/CD28 (Stemcell Technologies, France; Cat: 10971) at a dilution of 1:40 directly into wells and the plate incubated 37° C., 5% CO2 for 45 minutes.
# To determine EC50's of test antibodies, a dilution series was created in sterile TBS/NaCl Buffer at 10× the final assay concentration added to the assay plate containing cells. Plate was incubated for 30 minutes at 37° C., 5% CO2.
# ARG2 was added to relevant wells of the plate at a final concentration of 15 μg/ml. The equivalent volume of ARG2 vehicle and test antibody vehicle was added to relevant control wells. The total volume in each well was 200 μl. Cells were treated with test antibodies for a total of 96 hours at 37° C., 5% CO2. Antibodies were tested alongside C0020187 (parent IgG) as a positive control and R347 (irrelevant isotype control antibody) as a negative control.
# Assessment of T cell proliferation was performed using the BrdU Cell Proliferation ELISA Kit (Roche, Germany; Cat: 000000011647229001). BrdU labelling reagent was added after 78 hours of antibody treatment and the plate further incubated for 18 hours at 37° C., 5% CO2. The remainder of the assay was performed according to the manufacturer's instructions.
# Calculated data was expressed as % of control (Equation 3) and graphical plots were constructed using a four parameter fit and EC50's determined using model 205 in XLFit (IDBS, UK).
# All test sample data was corrected for background (mean of no cell control)
# % Control=100*((Test Sample−Mean Positive Control)/(Mean Negative Control−Mean Positive Control)) Equation 3:
# Mean Positive Control=T Cells in absence of ARG2
# Mean Negative Control=T Cells in presence of ARG2
# This assay served to provide evidence of improved functional efficacy for each affinity-matured antibody in comparison to the parent IgG, C0020187 (FIG. 14, Table 19). R347 was used as the irrelevant control. All clones tested n=2. Reference section 2.9 for methodology.
EC50,Maximum % Proliferation,Molecule
< 0.9 nM,99%,B1
< 0.9 nM,101%,B2
< 0.9 nM,92%,B3
< 0.7 nM,90%,B5
< 1 nM,,B8
< 1 nM,84%,B10

# Same assay, conditions: In Absence of rhARG2; hIgG1; top conc 2 μM; n=2
EC50,Maximum % Proliferation,Molecule
< 0.9 nM,93%,B1
< 0.9 nM,94%,B11
< 0.9 nM,90%,B6
< 0.9 nM,96%,B9
